Results from patent publication CN117736314A.

Columns and labels:
[1] = target: SARS-CoV-2 Omicron BA.5 S蛋白 (病毒颗粒上) (SARS-CoV-2); assay: cell-based or functional assay
[2] = target: SARS-CoV-2 Omicron(BA.2) S蛋白 (病毒颗粒上) (SARS-CoV-2); assay: cell-based or functional assay

**Q.** Which IC 50 (ng/mL), live virus neutralisation, FFA on Vero cells [1] does the source give for LY-CoV1404(bebtelovimab) (antibody) here?
**A.** Its IC 50 (ng/mL), live virus neutralisation, FFA on Vero cells is 7.99 ng/mL.

**Q.** What about the IC 50 (ng/mL), live virus neutralisation, FFA on Vero cells [2] of the same substance?
**A.** The IC 50 (ng/mL), live virus neutralisation, FFA on Vero cells was 11.2 ng/mL.
